We go through one molecule from publication PMC5330260 (Analytical biochemistry, 2017).

The experiment has as its target Gαi1 (human, UniProt P63096 1-354). In words: split reporter.

Chain of Gαi1 (P63096 whole entry): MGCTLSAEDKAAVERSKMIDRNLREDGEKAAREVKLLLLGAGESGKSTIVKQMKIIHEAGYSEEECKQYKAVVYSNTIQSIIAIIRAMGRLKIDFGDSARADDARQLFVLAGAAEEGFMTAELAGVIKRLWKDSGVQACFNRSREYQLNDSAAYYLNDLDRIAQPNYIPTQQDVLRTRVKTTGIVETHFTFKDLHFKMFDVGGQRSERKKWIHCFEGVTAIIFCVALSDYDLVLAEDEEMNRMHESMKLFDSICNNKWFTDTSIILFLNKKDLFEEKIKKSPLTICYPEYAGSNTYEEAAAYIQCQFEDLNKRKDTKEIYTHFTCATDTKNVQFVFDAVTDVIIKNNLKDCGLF

B1: RGS17 RH domain (domain or fragment, human, UniProt Q9UGC6 73-201, looked up)
chain: PTAEEVLSWSQNFDKMMKAPAGRNLFREFLRTEYSEENLLFWLACEDLKKEQNKKVIEEKARMIYEDYISILSPKEVSLDSRVREVINRNLLDPNPHMYEDAQLQIYTLMHRDSFPRFLNSQIYKSFVE
For B1, the “net signal increase in response to AlF4, fold of that of RGS6” value amounted to 2.8 fold and the “net signal increase in response to AlF4, fold of that of RGS7” value came to 6.3 fold.
